Changes are numbered by the printed parent chain.
B1: unnamed (protein)
chain: MNFPRASRLMQAAVLGGLMAVSAAATAQTNPYARGPNPTAASLEASAGPFTVRSFTVSRPSGYGAGTVYYPTNAGGTVGAIAIVPGYTARQSSIKWWGPRLASHGFVVITIDTNSTLDQPESRSSQQMAALRQVASLNGTSSSPIYGKVDTARMGVMGWSMGGGGSLISAANNPSLKAAAPQAPWHSSTNFSSVTVPTLIFACENDSIAPVNSSALPIYDSMSRNAKQFLEINGGSHSCANSGNSNQALIGKKGVAWMKRFMDNDTRYSTFACENPNSTAVSDFRTANCS
B2: unnamed (protein)
chain: B1 chain with E121S, P181A, H186D, A280R
B3: unnamed (protein)
chain: B1 chain with E121S, P181S, H186D, A280R
B4: unnamed (protein)
chain: B1 chain with E121S, H186L, A280R
B5: unnamed (protein)
chain: B1 chain with H186D, A280R
B6: unnamed (protein)
chain: B1 chain with E121S, P181G, H186D, A280R
B7: unnamed (protein)
chain: B1 chain with E121D, H186D, A280R
B8: unnamed (protein)
chain: B1 chain with E121D, A280R
B9: unnamed (protein)
chain: B1 chain with E121S, H186D, A280R
B10: unnamed (protein)
chain: B1 chain with E121S, H186F, A280R
B11: unnamed (protein)
chain: B1 chain with E121S, H186V, A280R

substrate: PET; assay: Proxy for plastic degradation [HPLC-UV]; details: pH 9; 30 °C; 0 h; part of the chain shown

| Protein | Proxy for plastic degradation [µM] |
| --- | --- |
| B1 | 0 |
| B9 | 0 |

same assay, conditions: pH 9; 30 °C; 1 h; part of the chain shown

| Protein | Proxy for plastic degradation [µM] |
| --- | --- |
| B1 | 25 |
| B9 | 5 |

same assay, conditions: pH 9; 30 °C; 2 h; part of the chain shown

| Protein | Proxy for plastic degradation [µM] |
| --- | --- |
| B1 | 42 |
| B9 | 7 |

same assay, conditions: pH 9; 30 °C; 3 h; part of the chain shown

| Protein | Proxy for plastic degradation [µM] |
| --- | --- |
| B1 | 50 |
| B9 | 10 |

same assay, conditions: pH 9; 30 °C; 4 h; part of the chain shown

| Protein | Proxy for plastic degradation [µM] |
| --- | --- |
| B1 | 55 |
| B9 | 11 |

same assay, conditions: pH 9; 30 °C; 5 h; part of the chain shown

| Protein | Proxy for plastic degradation [µM] |
| --- | --- |
| B1 | 68 |
| B9 | 11 |

same assay, conditions: pH 9; 30 °C; 6 h; part of the chain shown

| Protein | Proxy for plastic degradation [µM] |
| --- | --- |
| B1 | 70 |
| B9 | 12 |

same assay, conditions: pH 9; 30 °C; 7 h; part of the chain shown

| Protein | Proxy for plastic degradation [µM] |
| --- | --- |
| B1 | 80 |
| B9 | 14 |

same assay, conditions: pH 9; 30 °C; 8 h; part of the chain shown

| Protein | Proxy for plastic degradation [µM] |
| --- | --- |
| B1 | 75 |
| B9 | 15 |

same assay, conditions: pH 9; 30 °C; 9 h; part of the chain shown

| Protein | Proxy for plastic degradation [µM] |
| --- | --- |
| B1 | 90 |
| B9 | 13 |

same assay, conditions: pH 9; 30 °C; 10 h; part of the chain shown

| Protein | Proxy for plastic degradation [µM] |
| --- | --- |
| B1 | 92 |
| B9 | 15 |

same assay, conditions: pH 9; 40 °C; 0 h; part of the chain shown

| Protein | Proxy for plastic degradation [µM] |
| --- | --- |
| B1 | 0 |
| B9 | 0 |

same assay, conditions: pH 9; 40 °C; 1 h; part of the chain shown

| Protein | Proxy for plastic degradation [µM] |
| --- | --- |
| B1 | 70 |
| B9 | 11 |

same assay, conditions: pH 9; 40 °C; 2 h; part of the chain shown

| Protein | Proxy for plastic degradation [µM] |
| --- | --- |
| B1 | 82 |
| B9 | 10 |

same assay, conditions: pH 9; 40 °C; 3 h; part of the chain shown

| Protein | Proxy for plastic degradation [µM] |
| --- | --- |
| B1 | 105 |
| B9 | 10 |

same assay, conditions: pH 9; 40 °C; 4 h; part of the chain shown

| Protein | Proxy for plastic degradation [µM] |
| --- | --- |
| B1 | 100 |
| B9 | 10 |

same assay, conditions: pH 9; 40 °C; 5 h; part of the chain shown

| Protein | Proxy for plastic degradation [µM] |
| --- | --- |
| B1 | 102 |
| B9 | 7 |

same assay, conditions: pH 9; 40 °C; 6 h; part of the chain shown

| Protein | Proxy for plastic degradation [µM] |
| --- | --- |
| B1 | 104 |
| B9 | 8 |

same assay, conditions: pH 9; 40 °C; 7 h; part of the chain shown

| Protein | Proxy for plastic degradation [µM] |
| --- | --- |
| B1 | 100 |
| B9 | 9 |

same assay, conditions: pH 9; 40 °C; 8 h; part of the chain shown

| Protein | Proxy for plastic degradation [µM] |
| --- | --- |
| B1 | 104 |
| B9 | 8 |

same assay, conditions: pH 9; 40 °C; 9 h; part of the chain shown

| Protein | Proxy for plastic degradation [µM] |
| --- | --- |
| B1 | 115 |
| B9 | 7 |

same assay, conditions: pH 9; 40 °C; 10 h; part of the chain shown

| Protein | Proxy for plastic degradation [µM] |
| --- | --- |
| B1 | 108 |
| B9 | 8 |

same assay, conditions: pH 9; 30 °C; 24 h

| Protein | Proxy for plastic degradation [µM] |
| --- | --- |
| B2 | 4.2 |
| B3 | 3.5 |
| B4 | 2.1 |
| B5 | 10.8 |
| B6 | 2.3 |
| B7 | 5.3 |
| B8 | 15.2 |
| B10 | 6 |
| B11 | 2.4 |

same assay, conditions: pH 9; 30 °C; 72 h

| Protein | Proxy for plastic degradation [µM] |
| --- | --- |
| B2 | 7.8 |
| B3 | 4.9 |
| B4 | 3.1 |
| B5 | 19 |
| B6 | 3.3 |
| B7 | 24.3 |
| B8 | 23.2 |
| B10 | 11.4 |
| B11 | 4 |

same assay, conditions: pH 9; 40 °C; 24 h

| Protein | Proxy for plastic degradation [µM] |
| --- | --- |
| B2 | 7.5 |
| B3 | 1.9 |
| B4 | 2 |
| B5 | 3.6 |
| B6 | 1.2 |
| B7 | 2.6 |
| B8 | 28.9 |
| B10 | 7.5 |
| B11 | 1.9 |

same assay, conditions: pH 9; 40 °C; 72 h

| Protein | Proxy for plastic degradation [µM] |
| --- | --- |
| B2 | 7.6 |
| B3 | 2.2 |
| B4 | 7.1 |
| B5 | 5.2 |
| B6 | 1.7 |
| B7 | 7.2 |
| B8 | 38.4 |
| B10 | 14.4 |
| B11 | 7.1 |

Source: the PETadex activity labels (doi:10.1021/acscatal.9b00568)
